Assay results as given in patent publication US20240376222A1 (University of Texas, published 2024).

B1: Ab1 (antibody, V domains shown)
VH: QVQLMQSGAEVKKPGSSVKVSCKASGGTFSSYAISWVRQAPGQGLEWMGRIIPILGIANYAQKFQGRVTITADKSTSTAYMELSSLRSEDTAVYYCARDRDTMVRGGMDVWGQGTMVTVSS
VL: QSALNQPPSASGSPGQSVTISCTGTGSDIGGHNYVSWYQQHPGKAPKLMIYDVSKRPSRVPDRFSGSKSGNTASLTVSGLQAEDEADYYCSSYAGSNVVFGAGTKVTVL
B2: Ab30 (antibody, V domains shown)
VH: EVQLVQSGGGLAQPGGSLRLSCAASGFTFSIYSMNWVRQAPGKGLEWVSYIGGGGTSIYYADSVKGRFTISRDNAKNSLSLQMNSLRAEDTGVYYCARGKPATGFDYWGQGTLVSVSS
VL: QSVLTQPRSVSGSPGQSVTISCTGTSSDVGGYNYVSWYQQHPGKAPKLMISEVSKRPSGVPDRFSGSKSGNTASLTVSGLQAEDEADYYCSSYAGGYTPYVFGTGTKVTVL
B3: Ab59 (antibody, V domains shown)
VH: QVQLVESGGGVVQPGRSLRLSCAASGFTFSSYAMHWVRQAPGKGLEWVAVISYDGSNKYYADSVKGRFTISRDNSKNTLYLQMNSLRAEDTAVYYCARGGPYYDFWSDGMDVWGQGTMVTVSS
VL: QSVLTQPHSVSESPGKTVTISCTRSSGSIASNYVQWYQQRPGSSPTTVIYEDNQRPSGVPDRFSGSIDSSSNSASLTISGLKTEDEADYYCQSYDSSNYVFGTGTKVTVL
B4: Ab5 (antibody, V domains shown)
VH: QVQLVESGGGLVQPGRSLRLSCAASGFTFDDYAMHWVRQAPGKGLEWVSGISWNSGSIGYADSVKGRFTISRDNAKNSLYLQMNSLRAEDTALYYCAKVSSQSGSVAGFDYWGQGTLVSVSS
VL: QPVLTQPPSASGTPGQRVTISCSGSSSNIGANYVYWYQQLPGTAPKLLIYRNNQRPSGVPDRFSGSKSGTSASLAIGGLRSEDEADYYCAGWDDSLSGVLFGGGTKVTVL
B5: muTfR Ab4 (antibody, V domains shown)
VH: EVQLVESGGGLVKPGGSLRLSCAASGFTFSWYTMNWVRQAPGKGLEWVSSISSSSSDMYYADSVKGRFTISRDNAKNSLYLQIDSLRAEDTAVYYCARAHYYDSTSLNHFYGMDVWGQGTTVTVSS
VL: QSVLTQPPSVSVAPGKTARITCGGNNIGSRTVHWYQQRPGQAPMLVVSDDNDRPSGIPERFSGSNSGNTATLTITRVEAGDEADYYCQVWDSSSDHLVFGGGTQLTVL
modifications: Biotinylated when used as the probe in the competition ELISA; the sites are not stated and the letters do not carry them.
notes: also called anti-muTfR Ab4; biotinylated Ab4
B6: Ab42 (antibody, V domains shown)
VH: QVQLVQSGAEVKKPGSSVKVSCKASGGTFSSYAISWVRQAPGQGLEWMGGIIPIFGTANYAQKFQGRVTITADESTSTAYMELSSLRSEDTAVYYCARGATRGMDVWGQGTLVTVSS
VL: DIVMTQSPSSLSASVGDRVTITCRASQSISNFLNWYQQKPGKAPKLLIYAASSLQSGVPSRFSGSRSGTDFTLTISSLQPEDFATYYCQQSSSIPLTFGGGTKLEIK
B7: Ab2 (antibody, V domains shown)
VH: QVQLVQSGAEVKKPGSSVKVSCKASGGTFSSYAISWVRQAPGQGLEWMGGIIPIFGTANYAQKFQGRVTITADESTSTAYMELSSLRSEDTAVYYCARFAFFSLASEDYWGQGTLVIVSS
VL: not shown

What follows are binders tested against T1, human TfR extracellular domain (ECD) (human, UniProt P02786 89-760) (assay: BLI (Octet), IgG on Protein A sensor, huTfR-ECD-His in solution, 1:1 global fit).
T1 construct: extracellular domain; Bought protein; also called HuTfR; huTfR
Description: FIG. 1. Illustrates the Kinetics and binding affinities of human transferrin receptor (TfR) antibodies and represents the kinetic binding graphs determined using BLI method with Octet 96-Red instrument. Protein A sensors (Fortebio) were used to capture anti-TfR IgG. During all incubation steps, sample temperature was set to room temperature with 1000 rpm shaking. Individual purified TfR antibodies were loaded onto sensors. After antibody capture, the antibody-loaded sensors were subject to a solution flow containing huTfR-ECD-His at designated concentrations: (indicated by the colored lines under each graphs) and for a defined time (shown in X-axis). After binding, the sensors were incubated in blank kinetics buffer to allow free dissociation of TfR for designated time. The binding kinetics parameters were calculated by the software from Fortebio (version 11) using 1:1 binding model with global fitting.
With B1 the Kd was 3.46 nM, the koff was 0.000398 s⁻¹ and the kon was 115000 M⁻¹ s⁻¹. With B2 the Kd was less than 0.001 nM, the koff was less than 1e-07 s⁻¹ and the kon was 119000 M⁻¹ s⁻¹.

The binders below were run against T2, muTfR extracellular domain (ECD), His-tagged (mouse, UniProt Q62351 89-763) (assay: BLI (Octet), IgG on Protein A sensor, muTfR-ECD-His in solution, 1:1 global fit).
T2 construct: extracellular domain; Bought protein (Sino Biological); also called muTfR-His; muTfR ECD
T2 sequence (Q62351 89-763): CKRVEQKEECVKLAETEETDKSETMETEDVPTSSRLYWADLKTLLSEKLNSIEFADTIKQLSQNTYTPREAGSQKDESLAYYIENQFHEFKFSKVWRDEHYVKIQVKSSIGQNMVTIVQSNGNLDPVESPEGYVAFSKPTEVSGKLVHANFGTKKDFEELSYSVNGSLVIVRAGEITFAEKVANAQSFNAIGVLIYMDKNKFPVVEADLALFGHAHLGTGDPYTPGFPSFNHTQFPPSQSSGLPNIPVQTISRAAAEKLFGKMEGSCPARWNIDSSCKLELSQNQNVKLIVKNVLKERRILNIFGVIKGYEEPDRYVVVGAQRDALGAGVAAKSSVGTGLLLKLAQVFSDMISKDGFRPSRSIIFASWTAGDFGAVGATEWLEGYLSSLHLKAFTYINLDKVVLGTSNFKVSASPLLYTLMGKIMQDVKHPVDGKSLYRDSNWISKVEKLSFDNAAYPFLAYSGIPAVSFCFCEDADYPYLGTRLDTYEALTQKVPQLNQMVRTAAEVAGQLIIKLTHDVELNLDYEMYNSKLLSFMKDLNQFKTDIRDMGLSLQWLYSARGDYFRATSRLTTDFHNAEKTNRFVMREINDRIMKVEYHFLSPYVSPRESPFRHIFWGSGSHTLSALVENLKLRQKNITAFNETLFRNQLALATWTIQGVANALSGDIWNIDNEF
Description: FIG. 3. Illustrates the Kinetics and binding affinities of murine transferrin receptor (TfR) antibodies and represents the kinetic binding graphs determined using BLI method with Octet 96-Red instrument. Protein A sensors (Fortebio) were used to capture anti-TfR IgG. Individual purified TfR antibodies were loaded onto Protein A sensors and subject to a solution flow containing muTfR-ECD-His at designated concentrations: (indicated by the colored lines under each graphs) and for a defined time (shown in X-axis). After binding, the sensors were incubated in blank kinetics buffer to allow free dissociation of TfR for designated time.
FIG. 4: Illustrates the binding kinetics parameters were calculated by the software from Fortebio (version 11) using 1:1 binding model with global fitting. KD is calculated by kdis/kon as determined from the FIG. 3 data.
In the case of B3, the Kd is reported as 2.17 nM, the koff is reported as 0.000162 s⁻¹ and the kon is reported as 74900 M⁻¹ s⁻¹. With B4 the Kd was 2.58 nM, the koff was 0.000135 s⁻¹ and the kon was 52300 M⁻¹ s⁻¹. In the case of B5, the Kd is reported as 5.03 nM, the koff is reported as 0.000391 s⁻¹ and the kon is reported as 77700 M⁻¹ s⁻¹. Work on B6 yielded a Kd of 2.09 nM, a koff of 0.00013 s⁻¹ and a kon of 62000 M⁻¹ s⁻¹. With B7 the Kd was 8.37 nM, the koff was 0.000145 s⁻¹ and the kon was 17300 M⁻¹ s⁻¹.
